Our source for the Adjusted Binding Rate values is patent US20260201020A1, “METHODS FOR EXPRESSION OF FUSION-FREE BOVINE ULTRALONG CDR3 SCAFFOLD” (priority 2022, published 2026).

For assay [1], the target named is SARS-CoV-2 Spike RBD (SARS-CoV-2), P0DTC2.
Assay [2] shares this target. The source holds these as a separate data set.
The target is the same in assay [3]. This is another data set of the same source.
Assay [4] shares this target. The source holds these as a separate data set.
The target is the same in assay [5]. The source holds these as a separate data set.
Assay [6] shares this target. This is another data set of the same source.
Assay [7] shares this target. This is another data set of the same source.

Like-named read-outs stand apart in the source and are kept apart here.

B1: R2G3-His (peptide)
chain: GGGGAMGSEGDKTCPDGYEHTCGCIGGCGCKRSACIGALCCQASLGGWLSDGETYTGGGGSGGGGSHHHHHH
modifications: not checked
As for B1, the Adjusted Binding Rate in assay [1] was determined as 3.4 nm/s; in assay [2] it was 1.5 nm/s; in assay [3], 5.39 nm/s; in assay [4], 5.5 nm/s; in assay [5], 2.1 nm/s; in assay [6], 14.3 nm/s. Besides, in assay [7], the Adjusted Binding Rate came to 3.39 nm/s.
